Measured values reported in IntAct's records for PubMed 23892456.

How the values were obtained:
[1] = target: nanog_mouse Nanog (UniProt Q80Z64)
[2] = target: nanog_mouse Nanog (UniProt Q80Z64); remark: listed apart in the source
[3] = target: nanog_mouse Nanog (UniProt Q80Z64); remark: listed apart in the source

Chain of nanog_mouse Nanog (Q80Z64 whole entry): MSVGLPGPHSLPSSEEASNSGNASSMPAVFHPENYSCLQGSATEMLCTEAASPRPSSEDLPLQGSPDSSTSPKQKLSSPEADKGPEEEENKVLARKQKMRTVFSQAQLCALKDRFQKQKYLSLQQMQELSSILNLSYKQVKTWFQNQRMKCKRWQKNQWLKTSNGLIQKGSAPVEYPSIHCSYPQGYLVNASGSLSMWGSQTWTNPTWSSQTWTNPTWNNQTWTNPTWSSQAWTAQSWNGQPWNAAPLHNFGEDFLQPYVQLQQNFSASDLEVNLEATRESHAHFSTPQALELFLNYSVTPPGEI
Chain of Transcription factor SOX-2 (Mus musculus), P48432 T224A (P48432 whole entry T224A): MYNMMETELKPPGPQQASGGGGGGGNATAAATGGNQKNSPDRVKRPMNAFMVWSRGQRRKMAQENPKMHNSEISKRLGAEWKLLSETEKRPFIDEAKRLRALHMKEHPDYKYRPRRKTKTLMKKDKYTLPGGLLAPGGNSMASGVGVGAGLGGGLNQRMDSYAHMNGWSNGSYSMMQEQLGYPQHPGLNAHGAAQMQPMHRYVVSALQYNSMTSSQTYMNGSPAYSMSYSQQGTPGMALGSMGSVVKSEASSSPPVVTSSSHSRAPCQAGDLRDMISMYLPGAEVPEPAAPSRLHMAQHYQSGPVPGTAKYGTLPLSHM
Chain of Transcription factor SOX-2 (Mus musculus), P48432 T217A (P48432 whole entry T217A): as the sequence (P48432 whole entry T224A) above, with T217A, A224T counted along it
Chain of Transcription factor SOX-2 (Mus musculus), P48432 S228A (P48432 whole entry S228A): as the sequence (P48432 whole entry T224A) above, with A224T, S228A counted along it
Chain of Transcription factor SOX-2 (Mus musculus), P48432 T217A;T224A;S228A (P48432 whole entry T217A/T224A/S228A): as the sequence (P48432 whole entry T224A) above, with T217A, S228A counted along it

effect of a mutation on the interaction [3]	Substance	also measured
	Transcription factor SOX-2 (Mus musculus), P48432 T217A	effect of a mutation on the interaction [1]: disrupting interaction
	Transcription factor SOX-2 (Mus musculus), P48432 T217A;T224A;S228A	effect of a mutation on the interaction [2]: disrupting interaction
disrupting interaction	Transcription factor SOX-2 (Mus musculus), P48432 S228A	
disrupting interaction	Transcription factor SOX-2 (Mus musculus), P48432 T224A	
